Experimental data from patent US20160137746A1, “METHODS FOR TREATING HIGH CARDIOVASCULAR RISK PATIENTS WITH HYPERCHOLESTEROLEMIA” (Sanofi Biotechnology, priority 2014, published 2016).

Tested on: high cardiovascular risk patients with hypercholesterolemia
Assay: ODYSSEY LONG TERM: long-term safety and tolerability
[1] = Final analysis, Safety Analysis
[2] = Final analysis, Safety Analysis (N = 1550)
[3] = Safety population, 223 patients, pre-specified analysis
[4] = Safety population, 562 patients, pre-specified analysis
[5] = Safety population, treatment period, pre-specified analysis, 150 Q2W
[6] = TEAE period, pre-specified analysis
[7] = alirocumab patients with two consecutive LDL-C <25 mg/dL (n = 562), pre-specified analysis

Procedure: Safety parameters (adverse events [including adjudicated cardiovascular events], laboratory data, vital signs, and ECG) were assessed throughout the study.
Safety endpoints assessed in this trial were: cardiovascular events; allergic events; local tolerability at injection site; other adverse events (including hemolytic anemia); laboratory tests: urinalysis, hematology (red blood cell count, red blood cell distribution width (RDW), reticulocyte count, hemoglobin, hematocrit, platelets, white blood cell count with differential blood count), standard chemistry (sodium, potassium, chloride, bicarbonate, calcium, phosphorous, urea nitrogen, creatinine, uric acid, total protein, albumin, LDH, γ Glutamyl Transferase [γGT]), Vitamin E (alpha tocopherol) and other Fat Soluble Vitamins, cortisol (and reflexive ACTH levels, as needed, followed by ACTH stimulation test, as needed), Gonadal Hormone Assessments, Hepatitis C antibody, liver panel (ALT, AST, ALP, and total bilirubin), and CPK; vital signs including heart rate and blood pressure; and 12-lead ECG.
The safety population included all randomized patients who received at least one dose or part of a dose of the double-blind IMP.
Safety analyses were descriptive, performed on the safety population according to treatment actually received. The safety analysis focused on the TEAE period defined as the time from the first dose of double-blind injection up to 70 days after the last double-blind injection. TEAE which developed, worsened or became serious or PCSA occurring after the patient's first injection in the open-label extension study (LTS13643) were not considered in the TEAE period. TEAE period was truncated at the common study cut-off date.

## Alirocumab: human anti-PCSK9 antibody; HCVR SEQ ID NO:1, LCVR SEQ ID NO:6; CDRs SEQ ID NOs 2/3/4/7/8/10
[1]
  Alanine aminotransferase >3 times ULN, %: (1.8) %
  Alanine aminotransferase >3 times ULN, n/N: 28/1533
  Aspartate aminotransferase >3 times ULN, %: (1.4) %
  Aspartate aminotransferase >3 times ULN, n/N: 22/1533
  Creatine kinase >3 times ULN, %: (3.7) %
  Creatine kinase >3 times ULN, n/N: 56/1507
  Diabetes in patients with no history of diabetes, %: (1.8) %
  Diabetes in patients with no history of diabetes, n/N: 18/994
  Worsening of diabetes in patients with history of diabetes, %: (12.9) %
  Worsening of diabetes in patients with history of diabetes, n/N: 72/556
[2]
  Amnesia, % of patients: (0.3) %
  Amnesia, No. of patients: 5
  CHD death including unknown cause, % of patients: (0.3) %
  CHD death including unknown cause, No. of patients: 4
  Confusional state, % of patients: (0.3) %
  Confusional state, No. of patients: 4
  Congestive heart failure requiring hospitalization, % of patients: (0.6) %
  Congestive heart failure requiring hospitalization, No. of patients: 9
  Fatal and non-fatal ischemic stroke, % of patients: (0.6) %
  Fatal and non-fatal ischemic stroke, No. of patients: 9
  General allergic reaction events, % of patients: (10.1) %
  General allergic reaction events, No. of patients: 156
  Hemolytic anemia, No. of patients: 0
  Ischemia-driven coronary revascularization procedure, % of patients: (3.1) %
  Ischemia-driven coronary revascularization procedure, No. of patients: 48
  Local injection site reaction, % of patients: (5.9) %
  Local injection site reaction, No. of patients: 91
  Memory impairment, % of patients: (0.3) %
  Memory impairment, No. of patients: 4
  Myalgia, % of patients: (5.4) %
  Myalgia, No. of patients: 84
  Neurocognitive disorders, % of patients: (1.2) %
  Neurocognitive disorders, No. of patients: 18
  Neurological events, % of patients: (4.2) %
  Neurological events, No. of patients: 65
  Non-fatal MI, % of patients: (0.9) %
  Non-fatal MI, No. of patients: 14
  Ophthalmological events, % of patients: (2.9) %
  Ophthalmological events, No. of patients: 35
  Positively adjudicated cardiovascular events (including all cardiovascular AEs listed above), % of patients: (4.6) %
  Positively adjudicated cardiovascular events (including all cardiovascular AEs listed above), No. of patients: 72
  Post hoc analysis of a subgroup of adjudicated MACE, % of patients: (1.7) %
  Post hoc analysis of a subgroup of adjudicated MACE, No. of patients: 27
  TEAEs leading to death, % of patients: (0.5) %
  TEAEs leading to death, No. of patients: 8
  TEAEs leading to discontinuation, % of patients: (7.2) %
  TEAEs leading to discontinuation, No. of patients: 111
  TEAEs, % of patients: (81.0) %
  TEAEs, No. of patients: 1255
  Treatment-emergent SAEs, % of patients: (18.7) %
  Treatment-emergent SAEs, No. of patients: 290
[3]
  Time to the first calculated LDL-C value <15 mg/dL, mean (SD): 12.99 (12.43) weeks
  Time to the first calculated LDL-C value <15 mg/dL, median: 8.14 weeks
[4]
  Time to the first calculated LDL-C value <25 mg/dL, mean (SD): 11.03 (11.51) weeks
  Time to the first calculated LDL-C value <25 mg/dL, median: 4.86 weeks
[5]
  Patients with 2 consecutive calculated LDL-C value <15 mg/dL, %: (14.8%)
  Patients with 2 consecutive calculated LDL-C value <15 mg/dL, n/N: 223/1503
  Patients with 2 consecutive calculated LDL-C value <25 mg/dL, %: (37.4%)
  Patients with 2 consecutive calculated LDL-C value <25 mg/dL, n/N: 562/1503
[6]
  Cardiovascular death per adjudication: 5 (0.3%) n (%)
  Patients with decreased plasma vitamin E levels below the outer limit of normal (31 out of 1461): 2.1%
  SAEs: 255 (16.5%) n (%)
[7]
  AE of special interest: All adjudicated cardiovascular events, % of patients: 4.3%
  AE of special interest: General allergic reaction events, % of patients: 8.0%
  AE of special interest: Haemolytic anaemia, % (n) of patients: 0
  AE of special interest: Neurocognitive disorders, % of patients: 0.7%
  AE of special interest: Neurological events, % of patients: 3.2%
  AE of special interest: Ophthalmological events, % of patients: 2.5%
  AE of special interest: Treament-emergent local injection site reactions, % of patients: 6.2%
  Neurocognitive AE: Amnesia, % (n) of patients: 0
  Neurocognitive AE: Any neurocognitive disorder, % of patients: 0.7%
  Neurocognitive AE: Confusion postoperative, % (n) of patients: 0
  Neurocognitive AE: Confusional state, % of patients: 0.2% (1)
  Neurocognitive AE: Dementia, % of patients: 0.2% (1)
  Neurocognitive AE: Disorientation, % (n) of patients: 0
  Neurocognitive AE: Disturbance in attention, % (n) of patients: 0
  Neurocognitive AE: Frontotemporal dementia, % of patients: 0.2% (1)
  Neurocognitive AE: Memory impairment, % (n) of patients: 0
  Neurocognitive AE: Transient global amnesia, % (n) of patients: 0
  TEAE ALT increase, % of patients: 0.7%
  TEAE AST increase, % of patients: 0%
  TEAE Angina pectoris, % of patients: 1.8% (10)
  TEAE Arthralgia, % of patients: 3.2% (18)
  TEAE Atrial fibrillation, % of patients: 1.6% (9)
  TEAE Back pain, % of patients: 5.0% (28)
  TEAE Bronchitis, % of patients: 5.2% (29)
  TEAE CPK increase, % of patients: 0.2%
  TEAE Cellulitis, % of patients: 1.6% (9)
  TEAE Confusion, % of patients: 1.2% (7)
  TEAE Constipation, % of patients: 1.6% (9)
  TEAE Cough, % of patients: 2.0% (11)
  TEAE Depression, % of patients: 1.4% (8)
  TEAE Diarrhea, % of patients: 3.9% (22)
  TEAE Dizziness, % of patients: 1.4% (8)
  TEAE Fall, % of patients: 1.6% (9)
  TEAE Fatigue, % of patients: 3.0% (17)
  TEAE Gastoenteritis, % of patients: 0.7% (4)
  TEAE Headache, % of patients: 1.8% (10)
  TEAE Hypertension, % of patients: 2.0% (11)
  TEAE Influenza, % of patients: 4.1% (23)
  TEAE Injection site reaction, % of patients: 3.6% (20)
  TEAE Lower respiratory tract infection (LRTI), % of patients: 2.8% (16)
  TEAE Muscle spasms, % of patients: 2.8% (16)
  TEAE Musculoskeletal pain, % of patients: 1.4% (8)
  TEAE Myalgia, % of patients: 3.0% (17)
  TEAE Nasopharyngitis, % of patients: 10.0% (56)
  TEAE Nausea, % of patients: 0.9% (5)
  TEAE Non-cardiac chest pain, % of patients: 2.0% (11)
  TEAE Osteoarthritis, % of patients: 2.1% (12)
  TEAE Pain in extremity, % of patients: 2.1% (12)
  TEAE Rhinitis, % of patients: 1.2% (7)
  TEAE Sinusitis, % of patients: 3.0% (17)
  TEAE Type-2 diabetes mellitus, % of patients: 2.5% (14)
  TEAE leading to death, % of patients: 0.5% (3)
  TEAEs by System-Organ-Class: Blood and lymphatic system disorders, % of patients: 1.6% (9)
  TEAEs by System-Organ-Class: Cardiac disorders, % of patients: 7.5% (42)
  TEAEs by System-Organ-Class: Ear and labyrinth disorders, % of patients: 1.2% (7)
  TEAEs by System-Organ-Class: Eye disorders, % of patients: 6.4% (36)
  TEAEs by System-Organ-Class: Gastrointestinal disorders, % of patients: 13.7% (77)
  TEAEs by System-Organ-Class: General disorders and administration site conditions, % of patients: 11.0% (62)
  TEAEs by System-Organ-Class: Injury, poisoning, and procedural complications, % of patients: 10.5% (59)
